Data: patent US20220402995A1 (TOSOH, published 2022)
Changes are numbered by the printed parent chain.

B1: AAV-binding protein No. 1 (Asn324Asp) (receptor)
chain: MGSAGESVQITLPKDEVQLNAYVLQEPPKGETYTYDWQLITHPRDYSGEMEGKHSQILKLSKLTPGLYEFKVIVEGQNAHGEGYVNVTVKPEPRKNRPPIAIVSPQFQEISLPTTSTVIDGSQSTDDDKIVQYHWEELKGPLREEKISEDTAILKLSKLVPGNYTFSLTVVDSDGATNSTTANLTVNKAVDHHHHHH
B2: AAV-binding protein No. 105 (AVR8g + Arg353Cys) (receptor)
chain: B1 chain with V8D, D15N, Y33C, R44C, K53E, K62N, G81S, K90E, S167R, N178D
B3: AAV-binding protein No. 37 (Gln365Arg, His389Gln) (receptor)
chain: B1 chain with D15N, Q56R, H80Q
B4: AAV-binding protein No. 26 (Asn329Tyr, Lys399Arg) (receptor)
chain: B1 chain with D15N, N20Y, K90R
B5: AAV-binding protein No. 6 (Trp346Leu) (receptor)
chain: B1 chain with D15N, W37L
B6: AAV-binding protein No. 24 (Asn492Asp) (receptor)
chain: B1 chain with D15N, N183D
B7: AAV-binding protein No. 56 (Asn324Ser, Thr341Ala, Leu369Pro, Phe416Ser) (receptor)
chain: B1 chain with D15S, T32A, L60P, F107S
B8: AAV-binding protein No. 18 (Tyr393Cys) (receptor)
chain: B1 chain with D15N, Y84C
B9: AAV-binding protein No. 13 (Gly357Cys) (receptor)
chain: B1 chain with D15N, G48C
B10: AAV-binding protein No. 107 (AVR8g + Ser356Cys) (receptor)
chain: B1 chain with V8D, D15N, Y33C, S47C, K53E, K62N, G81S, K90E, S167R, N178D
B11: AAV-binding protein No. 3 (Lys338Glu) (receptor)
chain: B1 chain with D15N, K29E
B12: AAV-binding protein No. 52 (Leu348Pro, Leu376Pro, Val396Ala) (receptor)
chain: B1 chain with D15N, L39P, L67P, V87A
B13: AAV-binding protein No. 35 (Gln347Leu, Thr373Ala) (receptor)
chain: B1 chain with D15N, Q38L, T64A
B14: AAV-binding protein No. 110 (AVR8g + Glu360Val) (receptor)
chain: B1 chain with V8D, D15N, Y33C, E51V, K53E, K62N, G81S, K90E, S167R, N178D
B15: AAV-binding protein No. 31 (Tyr342His, Ile349Thr) (receptor)
chain: B1 chain with D15N, Y33H, I40T
B16: AAV-binding protein No. 10 (Arg353Cys) (receptor)
chain: B1 chain with D15N, R44C
B17: AAV-binding protein No. 11 (Tyr355Asn) (receptor)
chain: B1 chain with D15N, Y46N
B18: AAV-binding protein No. 41 (Glu453Gly, Ser476Arg) (receptor)
chain: B1 chain with D15N, E144G, S167R
B19: AAV-binding protein No. 34 (Trp346Arg, Glu458Gly) (receptor)
chain: B1 chain with D15N, W37R, E149G
B20: AAV-binding protein No. 23 (Asn487Asp) (receptor)
chain: B1 chain with D15N, N178D
B21: AAV-binding protein No. 55 (Gln365Arg, Ser370Ala, Glu391Lys) (receptor)
chain: B1 chain with D15N, Q56R, S61A, E82K
B22: AAV-binding protein No. 111 (AVR8g + Lys(Glu)362Gly) (receptor)
chain: B1 chain with V8D, D15N, Y33C, K53G, K62N, G81S, K90E, S167R, N178D
notes: Glu362 of AVR8g replaced by Gly
B23: AAV-binding protein No. 7 (Leu348Pro) (receptor)
chain: B1 chain with D15N, L39P
B24: AAV-binding protein No. 22 (Leu477Pro) (receptor)
chain: B1 chain with D15N, L168P
B25: AAV-binding protein No. 28 (Tyr331Cys, Glu384Gly) (receptor)
chain: B1 chain with D15N, Y22C, E75G
B26: AAV-binding protein No. 112 (AVR8g + Ser364Leu) (receptor)
chain: B1 chain with V8D, D15N, Y33C, K53E, S55L, K62N, G81S, K90E, S167R, N178D
B27: AAV-binding protein No. 108 (AVR8g + Met359Leu) (receptor)
chain: B1 chain with V8D, D15N, Y33C, M50L, K53E, K62N, G81S, K90E, S167R, N178D
B28: AAV-binding protein No. 38 (Gln365Arg, Gln415Leu) (receptor)
chain: B1 chain with D15N, Q56R, Q106L

Tests used:
[1] = molecular target: T1, VLP2 (virus-like particles of AAV2) (AAV2, UniProt P03135 1-735; P03135 1-598; P03135 1-533); experiment: ELISA on VLP2; binding after 43°C 15 min / untreated
T1 construct: Empty AAV2 capsid; background says about 60 protein molecules, VP1:VP2:VP3 = 1:1:10; Immobilised on the ELISA plate

[2] = molecular target: T1, VLP2 (virus-like particles of AAV2); experiment: ELISA on VLP2; binding after pH 10.0 41.2°C 15 min / untreated

T1 sequence (P03135 whole entry, chain 1 of 3): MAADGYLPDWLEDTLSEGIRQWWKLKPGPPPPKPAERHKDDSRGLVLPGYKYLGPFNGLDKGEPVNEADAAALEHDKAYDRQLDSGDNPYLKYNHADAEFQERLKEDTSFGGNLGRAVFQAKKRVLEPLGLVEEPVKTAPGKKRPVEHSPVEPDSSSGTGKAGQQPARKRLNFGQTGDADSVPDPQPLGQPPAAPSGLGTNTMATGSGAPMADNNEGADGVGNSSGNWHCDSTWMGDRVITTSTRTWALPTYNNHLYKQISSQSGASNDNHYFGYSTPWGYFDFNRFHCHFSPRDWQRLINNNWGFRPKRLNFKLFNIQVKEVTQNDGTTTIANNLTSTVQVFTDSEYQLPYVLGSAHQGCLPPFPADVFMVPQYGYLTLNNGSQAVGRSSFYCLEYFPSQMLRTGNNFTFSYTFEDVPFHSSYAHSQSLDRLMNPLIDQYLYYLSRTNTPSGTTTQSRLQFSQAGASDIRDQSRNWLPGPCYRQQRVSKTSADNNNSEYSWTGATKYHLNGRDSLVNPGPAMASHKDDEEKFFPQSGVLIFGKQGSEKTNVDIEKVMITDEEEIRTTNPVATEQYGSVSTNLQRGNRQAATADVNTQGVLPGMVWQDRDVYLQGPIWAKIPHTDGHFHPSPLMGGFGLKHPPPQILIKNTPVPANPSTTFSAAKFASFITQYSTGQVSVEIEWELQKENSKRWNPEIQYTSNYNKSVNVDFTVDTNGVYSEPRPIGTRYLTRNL
T1 sequence (P03135 139-735, tags left off, chain 2 of 3): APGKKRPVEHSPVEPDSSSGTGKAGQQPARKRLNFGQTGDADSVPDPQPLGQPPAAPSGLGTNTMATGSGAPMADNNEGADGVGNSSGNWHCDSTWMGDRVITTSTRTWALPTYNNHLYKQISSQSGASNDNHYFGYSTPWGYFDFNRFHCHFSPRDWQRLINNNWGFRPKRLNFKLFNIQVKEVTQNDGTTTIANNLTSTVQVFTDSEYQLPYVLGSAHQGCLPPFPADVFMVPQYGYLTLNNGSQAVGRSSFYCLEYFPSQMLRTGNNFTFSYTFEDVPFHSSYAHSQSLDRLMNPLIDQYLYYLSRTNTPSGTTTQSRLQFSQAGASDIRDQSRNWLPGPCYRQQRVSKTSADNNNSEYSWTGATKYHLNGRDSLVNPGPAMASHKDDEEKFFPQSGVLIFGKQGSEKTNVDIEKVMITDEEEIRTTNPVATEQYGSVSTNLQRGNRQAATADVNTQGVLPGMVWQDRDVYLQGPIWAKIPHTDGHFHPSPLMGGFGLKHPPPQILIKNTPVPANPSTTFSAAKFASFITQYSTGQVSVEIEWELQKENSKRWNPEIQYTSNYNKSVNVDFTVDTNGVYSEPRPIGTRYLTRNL
T1 sequence (P03135 203-735, chain 3 of 3): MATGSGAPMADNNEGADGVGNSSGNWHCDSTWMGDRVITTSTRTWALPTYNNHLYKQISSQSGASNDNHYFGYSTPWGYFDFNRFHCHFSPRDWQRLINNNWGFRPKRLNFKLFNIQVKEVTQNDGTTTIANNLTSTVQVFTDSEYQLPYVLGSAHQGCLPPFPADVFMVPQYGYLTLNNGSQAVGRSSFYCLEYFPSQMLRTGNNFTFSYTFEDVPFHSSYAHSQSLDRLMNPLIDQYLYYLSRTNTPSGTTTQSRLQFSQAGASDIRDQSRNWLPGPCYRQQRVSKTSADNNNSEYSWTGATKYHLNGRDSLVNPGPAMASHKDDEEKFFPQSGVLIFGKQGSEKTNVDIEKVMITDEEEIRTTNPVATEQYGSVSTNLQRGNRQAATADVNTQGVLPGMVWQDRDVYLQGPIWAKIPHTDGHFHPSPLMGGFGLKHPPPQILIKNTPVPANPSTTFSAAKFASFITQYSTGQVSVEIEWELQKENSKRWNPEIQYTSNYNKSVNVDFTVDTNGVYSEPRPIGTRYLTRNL

Binder	Residual activity [%] [1] [%]	Residual activity [%] [2] [%]
B1	46	
B2		62.1
B3	70.1	
B4	61.9	
B5	85.7	
B6	63.2	
B7	81.3	
B8	86.4	
B9	97	
B10		67.6
B11	52.6	
B12	80.9	
B13	85.9	
B14		33.3
B15	66.8	
B16	84.3	
B17	80.6	
B18	56.1	
B19	78.1	
B20	58.3	
B21	65.7	
B22		41.1
B23	69.6	
B24	79.9	
B25	83.7	
B26		45.3
B27		32.4
B28	65.3	
